Data on 1 molecule can be found in paper PMC6050322, “A radical S-adenosyl-L-methionine enzyme and a methyltransferase catalyze cyclopropane formation in natural product biosynthesis” (Nature Communications, 2018).

For the assay, the target named is T1, HemN-like radical SAM enzyme Swoo_2002 (Shewanella woodyi ATCC 51908, UniProt B1KQP7 1-448).
T1 construct: Swoo_2002, HemN-like radical SAM enzyme (counterpart of C10P) from a cryptic biosynthetic gene cluster of Shewanella woodyi ATCC 51908; The enzyme carries one [4Fe-4S] cluster per polypeptide after anaerobic reconstitution; also called C10P surrogate; c10P counterpart; source: E. coli Rosetta(DE3) (strain E. coli RoTB-SW), purified (Ni-NTA, desalination column)
T1 sequence (looked up): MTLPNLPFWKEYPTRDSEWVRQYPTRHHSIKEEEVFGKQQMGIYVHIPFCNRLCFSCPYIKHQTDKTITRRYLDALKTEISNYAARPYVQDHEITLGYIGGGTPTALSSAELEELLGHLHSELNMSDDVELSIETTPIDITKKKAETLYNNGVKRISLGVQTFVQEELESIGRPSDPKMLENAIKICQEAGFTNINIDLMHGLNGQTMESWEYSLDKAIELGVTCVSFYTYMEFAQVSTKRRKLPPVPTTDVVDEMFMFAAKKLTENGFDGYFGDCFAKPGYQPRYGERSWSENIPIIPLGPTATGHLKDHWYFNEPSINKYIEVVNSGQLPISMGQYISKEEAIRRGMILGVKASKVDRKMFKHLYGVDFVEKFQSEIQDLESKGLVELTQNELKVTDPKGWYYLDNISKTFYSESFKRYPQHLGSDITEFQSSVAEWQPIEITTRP
As to the kind of experiment: ITC; 600 μM C10Q titrated into 200 μL of 60 μM Swoo_2002; PBS buffer pH 7.4 (after desalination, no glycerol, less than 5‰ DMSO); Malvern MicroCal ITC200. Particulars: both partners purified. (In general: In ITC the heat of successive injections is recorded.)

B1: methyltransferase C10Q (enzyme, Streptomyces zelensis NRRL 11183, UniProt A0A1W6EUU7 1-234, looked up)
chain: MTTEAPLLDLAERVPLDRPHGDIEAVRAYDLGMRRSALMAYKRPTERILAAYREGMTDFVDIGFNTGLLSLHVAGRLPDVAVSGVEEFPHLVDVAEDNLTLGVWANMAGDVEFEQSKLSRLPFPDDSADIVYSFSSLHRWRRPVETLREAARVCKPDGTVLIEDVNRLAEEGHITFILQFVKEGGDQFMRSLKAAYSLDQARDLLREAGLDDWHVVEEDLGLVISNRPVTPVSM
notes: SAM-dependent methyltransferase C10Q of the CC-1065 biosynthetic gene cluster, Streptomyces zelensis NRRL 11183; cloned from total DNA by 'similar procedures' as the intact c10P gene; source: E. coli Rosetta(DE3) (strain E. coli Ro37-Q), purified (Ni-NTA, desalination column)
The term Kd denotes the concentration at which binding is half-saturated. The molecule B1 registered a Kd of 8 µM.
